The source of these data is PMC6597010 (Cell, 2019).

The series deals with the molecule itself. Put plainly: cryo-EM structure.

B1: C-terminal Strep-tag HsMCU (human mitochondrial calcium uniporter) (natural protein)
chain: VHQRIASWQNLGAVYCSTVVPSDDVTVVYQNGLPVISVRLPSRRERCQFTLKPISDSVGVFLRQLQEEDRGIDRVAIYSPDGVRVAASTGIDLLLLDDFKLVINDLTYHVRPPKRDLLSHENAATLNDVKTLVQQLYTTLCIEQHQLNKERELIERLEDLKEQLAPLEKVRIEISRKAEKRTTLVLWGGLAYMATQFGILARLTWWEYSWDIMEPVTYFITYGSAMAMYAYFVMTRQEYVYPEARDRQYLLFFHKGAKKSRFDLEKYNQLKDAIAQAEMDLKRLRDPLQVHLPLRQIGEKD
As for B1, the “stoichiometry N” value came to 4.

B2: human MCU/EMRE complex (one channel: MCU tetramer with four EMRE subunits) (complex)
chain 1: B1 chain
chain 2: VSAAWSGSGRSLVPSRSVIVTRSGAILPKPVKMSFGLLRVFSIVIPFLYVGTLISKNFAALLEEHDIFVPEDDDDDD
In the case of B2, the “stoichiometry N” value was 2.

In general, stoichiometry N refers to a count of units in the complex or per binding partner.
